Patent US20050260568A1, “Hepatitis C virus assays” (priority 2004, published 2005)

Tests used:
Huh-7 replicon cells = experiment: Alamar Blue cytotoxicity assay; type: cell-based; conditions: lower concentrations of IFN-α (100, 10, 1 units)
Experimental: (§1) Subsequent to addition of the test compounds described above (FRET Assay Preparation), at various times the plate was removed and Alamar Blue solution (Trek Diagnostics, #00-100) was added per well as a measure of cellular toxicity. After reading in a Cytoflour 4000 instrument (PE Biosystems), plates were rinsed with PBS and then used for FRET assay by the addition of 30 ul of the FRET peptide assay reagent described above (FRET Assay Preparation) per well. The plate was then placed into the Cytoflour 4000 instrument which had been set to 340 excite/490 emission, automatic mode for 20 cycles and the plate read in a kinetic mode. Typically, the signal to noise using an endpoint analysis after the reads was at least three-fold.
Compound analysis was determined by quantification of the relative HCV replicon inhibition and the relative cytotoxicity values. To calculate cytotoxicity values, the average Alamar Blue fluorescence signals from the control wells in row 11 (FIG. 4) were set as 100% non-toxic. The individual signals in each of the compound test wells were then divided by the average control signal and multiplied by 100% to determine […]. To calculate the HCV replicon inhibition values, an average background value FRET signal was obtained from the two wells containing the highest amount of interferon at the end of the assay period. […]

HCV replicon = HCV replicon FRET assay (NS3 protease activity as indirect measure of HCV RNA replication); type: cell-based, Hepatitis C virus; conditions: FIG. 7A IFN-α control titration 1000 to 1 units
From the text: To perform the HCV FRET screening assay, 96-well cell culture plates were used. The FRET peptide (Anaspec, Inc.) (Taliani et al., Anal. Biochem. 240:60-67 (1996), expressly incorporated by reference in its entirety) contains a fluorescence donor, EDANS, near one end of the peptide and an acceptor, DABCYL, near the other end. The fluorescence of the peptide is quenched by intramolecular resonance energy transfer (RET) between the donor and the acceptor, but as the NS3 protease cleaves the peptide the products are released from RET quenching and the fluorescence of the donor becomes apparent. […]
as §1, with “three-fold. […]” for “three-fold.”

Interferon alpha [IFN-α]
cytotoxicity (Alamar Blue staining change) (Huh-7 replicon cells): no apparent Alamar Blue staining change
EC50 in control samples of random compound plate (FRET) (HCV replicon): close to or slightly lower than the lowest concentration of IFN-α used
